B6: human eotaxin (ligand)
chain: not shown
modifications: 125I label (Bolton Hunter reagent) where used as radioligand

Legend:
[1] = target: T1, CCR1 on stable L1.2 transfectants (UniProt P32246 1-355, limits assumed); assay: 125I-RANTES binding to L1.2 CCR1 transfectants
T1 construct: whole, on cells; also called CKR-1; CC CKR1
T1 sequence (looked up): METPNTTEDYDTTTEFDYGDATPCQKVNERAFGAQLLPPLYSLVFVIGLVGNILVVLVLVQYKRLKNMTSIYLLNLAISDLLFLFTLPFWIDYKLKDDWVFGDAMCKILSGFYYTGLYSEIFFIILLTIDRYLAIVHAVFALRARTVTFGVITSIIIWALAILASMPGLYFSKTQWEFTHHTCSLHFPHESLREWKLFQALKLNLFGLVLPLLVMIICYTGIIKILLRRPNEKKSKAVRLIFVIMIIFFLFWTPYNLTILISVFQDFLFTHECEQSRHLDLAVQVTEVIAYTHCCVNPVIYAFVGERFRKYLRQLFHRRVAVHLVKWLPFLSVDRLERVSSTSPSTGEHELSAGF

[2] = target: T2, C-C chemokine receptor 3 (CCR3, CKR-3) of human origin, native, on blood eosinophils and basophils (human, UniProt P51677 1-355); assay: Scatchard analysis, radioligand binding to human eosinophils
T2 construct: whole, on cells; also called Eos L2 receptor; eosinophilic chemokine receptor
T2 sequence (looked up): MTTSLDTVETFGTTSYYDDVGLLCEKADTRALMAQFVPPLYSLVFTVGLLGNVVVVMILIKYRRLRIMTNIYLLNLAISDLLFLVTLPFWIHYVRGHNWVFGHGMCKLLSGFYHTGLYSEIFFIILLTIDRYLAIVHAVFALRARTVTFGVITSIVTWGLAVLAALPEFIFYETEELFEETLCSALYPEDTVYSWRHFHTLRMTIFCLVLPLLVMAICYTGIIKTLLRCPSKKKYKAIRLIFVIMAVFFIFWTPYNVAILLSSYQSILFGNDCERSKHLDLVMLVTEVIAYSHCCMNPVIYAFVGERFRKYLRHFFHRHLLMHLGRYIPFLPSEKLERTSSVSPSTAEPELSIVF
Description: (§1) In microfuge tubes, 5 ×10^5 cells were incubated with 0.1 nM radiolabeled chemokine (purchased from New England Nuclear, Massachusetts) in 200 µl aliquots at room temperature for 60 minutes. The cells were either incubated with radiolabeled chemokine alone, or together with unlabeled chemokines (from PeproTech) as competitors, which were used at the indicated concentrations. At the end of incubation, cells were washed 3 times in the binding buffer, each wash consisting of centrifugation in a microfuge at 7,000×g for 2 minutes. After the wash, the pellets were transferred into LP3 tubes and the radioactivity of the cells, which represented the amount of binding was measured in a gamma counter. All samples were in duplicates and all the experiments were repeated at least 3 times. Scatchard Plot was calculated from the binding data by MicroSoft Excell and CricketGraph on a Macintosh computer.
(§2) Figure 6: FIG. 6 is a histogram illustrating the binding of RANTES and MIP-1α to human eosinophils. […] Human eosinophils were incubated with 0.1 nM radiolabeled RANTES and the indicated concentrations of cold chemokines. The data plotted are the means and standard deviations of duplicates for each sample.

[3] = target: T3, receptor encoded by the A31 cDNA clone (human CKR-3 / Eos L2) (human, UniProt P51677 1-355); assay: Scatchard analysis, 125I-RANTES on membranes of A31-293-#20 cells
T3 construct: one RBL transfectant is also mentioned
T3 sequence: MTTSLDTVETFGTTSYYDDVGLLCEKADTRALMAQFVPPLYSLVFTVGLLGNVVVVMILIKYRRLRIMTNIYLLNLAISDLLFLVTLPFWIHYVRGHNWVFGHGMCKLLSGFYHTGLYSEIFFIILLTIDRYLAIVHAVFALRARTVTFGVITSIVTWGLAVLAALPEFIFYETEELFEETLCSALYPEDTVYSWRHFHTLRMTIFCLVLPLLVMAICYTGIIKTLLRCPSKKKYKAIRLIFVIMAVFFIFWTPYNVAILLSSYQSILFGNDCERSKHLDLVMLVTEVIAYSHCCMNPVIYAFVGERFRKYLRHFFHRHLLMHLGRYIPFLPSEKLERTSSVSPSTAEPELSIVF
Description: Plates were grown to confluence, and membranes were prepared as follows. Culture medium was removed, and the cells were washed with phosphate buffered saline. Cells were harvested by washing with TEN (40 mM TRIS, pH 7.5, 1 mM EDTA, and 150 mM NaCl). The cells were frozen in liquid nitrogen, thawed at room temperature, and the membrane fraction was collected by centrifugation in a conical tube for 10 minutes at 18,000 rpm. Each binding point was determined using one-half of the membranes harvested from a single 100 mm plate grown to confluence.
Binding assays were performed as described by Van Riper, G. et al., J. Exp. Med., 177: 851 (1993), with the following modifications. […] Binding buffer was 50 mM Hepes, 1 mM CaCl_2, 5 mM MgCl_2, 0.5% BSA, pH 7.2. Radiolabeled and cold ligand were added simultaneously to the membranes (see above), and incubated for 1.5 hours at room temperature. […] Activity retained on filters after washing was determined by scintillation counting. Filters were placed in 5 cc of scintillation fluid and were then counted in a miniaxi-beta liquid scintillation counter (United Technologies, Packard, Downers Grove, Ill.). All points were determined in triplicate, except for the point at 2 nM, which was determined in duplicate. […]

[4] = target: T2, C-C chemokine receptor 3 (CCR3, CKR-3) …; assay: heterologous competition of radiolabeled RANTES binding on eosinophils
Description: as §1, with “Cells transfected with Eos L2 receptors or normal human eosinophils purified (see above) were washed in Hanks Balanced Saline Solution (HBSS), then resuspended in binding buffer: 50 mM HEPES, 1 mM CaCl_2, 5 mM MgCl_2, 0.5% Bovine Serum Albumin (BSA), pH 7.3. In” for “In”
Figure 6: FIG. 6 is a histogram illustrating the binding of RANTES and MIP-1α to human eosinophils. […] Human eosinophils were incubated with 0.1 nM radiolabeled RANTES and the indicated concentrations of cold chemokines. […]

[5] = target: T2, C-C chemokine receptor 3 (CCR3, CKR-3) …; assay: inhibition of 0.1 nM 125I-RANTES binding to human eosinophils by varied 7B11
[6] = target: T2, C-C chemokine receptor 3 (CCR3, CKR-3) …; assay: inhibition of 0.1 nM 125I-eotaxin binding to human eosinophils by varied 7B11
[7] = target: T2, C-C chemokine receptor 3 (CCR3, CKR-3) …; assay: inhibition of 0.1 nM 125I-MCP-3 binding to human eosinophils by varied 7B11
[8] = target: T4, MIP-1α binding sites on human eosinophils; assay: Scatchard analysis, radioligand binding to human eosinophils
T4 construct: also called receptor for MIP-1α on eosinophils
Description: as §1, §2

[9] = target: B6; assay: Scatchard analysis of unlabeled eotaxin competition on E5 cells
Description: (§3) FIG. 11A) or to human eosinophils (FIG. 11B). […] After 60 minutes at room temperature, cell pellets were washed and counted. Scatchard plots of unlabeled eotaxin competition were calculated from the data (FIG. 11C, E5 cell line; FIG. 11D, eosinophils).
(§4) Competition is presented as the percentage of specific binding as calculated by $100(S-B)/(T-B)$, where S is the radioactivity of the sample, B as background binding and T as total binding without competitors. Background binding was obtained by incubating cells with radiolabeled chemokine and at least 400-fold excess of unlabeled chemokines. […] Duplicates were used throughout the experiments and the standard deviations were always less than 10% of the mean. All experiments were repeated at least three times. Curve fit was calculated by […] software.
(§5) The E5 cell line described in Example 6 was tested for its ability to bind radiolabeled eotaxin. […] In addition, both RANTES and MCP-3 were able to specifically compete for binding. None of the other chemokines tested, including MIP-1α, MIP-1β, or IL-8 were able to specifically compete for radiolabeled ligand (FIG. 12).

[10] = target: T2, C-C chemokine receptor 3 (CCR3, CKR-3) …; assay: Scatchard analysis of unlabeled eotaxin competition on human eosinophils
Description: as §3, §4, §5

B1: RANTES (ligand, human, UniProt P13501 24-91, looked up)
chain: SPYSSDTTPCCFAYIARPLPRAHIKEYFYTSGKCSNPAVVFVTRKNRQVCANPEKKWVREYINSLEMS
modifications: also: 125I label where used as radioligand
notes: also called cold RANTES
Question: Which results are given for B1?
Answer: binding result [1]: binds; Kd [2]: 0.883 nM; Kd [3]: ~2.5 nM

B2: MCP-3 (ligand)
chain: not shown
modifications: 125I label where used as radioligand
notes: also called human MCP-3
Question: Does B2 bind [4]?
Answer: binds

B3: monoclonal antibody 7B11 (ATCC Accession No. HB-12195) (antibody, V domains shown)
VH: MVQLQQSGTVLARPGASVRMSCKTSGYTFTNYRMHWVRQRPGQGLEWIGSIYPGHTETTYNQNFKDKAKLTAVTSATTAYMGLSSLTNEDSAVYYCTRSGGNYWGQGTTVTVSS
VL: DIQMTQSPSSLSASLGERVSLTCRASQDIGSSLNWLQQKPDGTFIRLIYATSSLDSGVPRRFSGSRSGSDYSLTISSLESEDFVDYYCLQYATFPLTFGAGTKLEIK
Question: What does the source list for B3?
Answer: IC50 [5]: 0.0137 µg/mL; IC50 [6]: 0.0257 µg/mL; IC50 [7]: 0.0188 µg/mL

B4: MIP-1α (ligand, human, UniProt P10147 23-92, looked up)
chain: ASLAADTPTACCFSYTSRQIPQNFIADYFETSSQCSKPGVIFLTKRSRQVCADPSEEWVQKYVSDLELSA
modifications: also: 125I label where used as radioligand
notes: also called macrophage inflammatory protein 1α
Question: For B4, which Kd [8] is on record?
Answer: 0.091 nM

B5: FLAG-tagged Eos L2 (CKR-3) receptor (receptor)
chain: MDYKDDDDKEFTTSLDTVETFGTTSYYDDVGLLCEKADTRALMAQFVPPLYSLVFTFGLLGNVVVVMILIKYRRLRIMTNIYLLNLAISDLLFLVTLPFWIHYVRGHNWVFGHGMCKLLSGFYHTGLYSEIFFIILLTIDRYLAIVHAVFALRARTVTFGVITSIVTWGLAVLAALPEFIFYETEELFEETLCSALYPEDTVYSWRHFHTLRMTIFCLVLPLLVMAICYTGIIKTLLRCPSKKKYKAIRLIFVIMAVFFIFWTPYNVAILLSSYQSILFGNDCERTKHLDLVMLVTEVIAYSHCCMNPVIYAFVGERFRKYLRHFFHRHLLMHLGRYIPFLPSEKLERTSSVSPSTAEPELSIVF
notes: Receptor from the 1.8 kb genomic HindIII fragment, expressed on L1.2 (L1-2) pre-B cells, 293 cells or baculovirus-infected Sf9 cells; also called Eos L2 receptor fusion protein; CKR-3/pcDNA3 product
Question: B5 was tested. Which Kd [9] did it give?
Answer: 1.5 nM

Question: B6 was tested. Which Kd [10] did it give?
Answer: 0.5 nM
